Here are results for four molecules from US20210206880A1 (published 2021).

Experiment [1] has as its target T1, MbNb207^cHopQ.
T1 construct: also called cHopQNbGFP207; 58 kDa Megabody
Nature of the experiment: BLI (Octet), biotinylated MbNb207^cHopQ on streptavidin sensors. (In general: In BLI a coated tip is dipped into the sample, and binding shifts an interference pattern.)

Experiment [2] deals with T1, MbNb207^cHopQ. Nature of the experiment: co-crystal structure.

B1: MbNb60^cYgjkE2 (designed binder)
chain: QVQLVESGGGLVYKEETQSGLNNYARVVEKGQYDSLEIPAQVAASWESGRDDAAVFGFIDKEQLDKYVANGGKRSDWTVKFAENRSQDGTLLGYSLLQESVDQASYMYSDNHYLAEMATILGKPEEAKRYRQLAQQLADYINTCMFDPTTQFYYDVRIEDKPLANGCAGKPIVERGKGPEGWSPLFNGAATQANADAVVKVMLDPKEFNTFVPLGTAALTNPAFGADIYWRGRVWVDQFWFGLKGMERYGYRDDALKLADTFFRHAKGLTADGPIQENYNPLTGAQQGAPNFSWSAAHLYMLYNDFFRKQASGGGSGGGGSGGGGSGNADNYKNVINRTGAPQYMKDYDYDDHQRFNPFFDLGAWHGHLLPDGPNTMGGFPGVALLTEEYINFMASNFDRLTVWQDGKKVDFTLEAYSIPGALVQKLTAKDVQVEMTLRFATPRTSLLETKITSNKPLDLVWDGELLEKLEAKEGKPLSDKTIAGEYPDYQRKISATRDGLKVTFGKVRATWDLLTSGESEYQVHKSLPVQTEINGNRFTSKAHINGSTTLYTTYSHLLTAQEVSKEQMQIRDILARPAFYLTASQQRWEEYLKKGLTNPDATPEQTRVAVKAIETLNGNWRSPGGAVKFNTVTPSVTGRWFSGNQTWPWDTWKQAFAMAHFNPDIAKENIRAVFSWQIQPGDSVRPQDVGFVPDLIAWNLSPERGGDGGNWNERNTKPSLAAWSVMEVYNVTQDKTWVAEMYPKLVAYHDWWLRNRDHNGNGVPEYGATRDKAHNTESGEMLFTVKKDSLRLSCAASGFTFSRYAMSWVRQAPGKGPEWVSAINSPGGSTSYADSVKGRFTISRDNAKNTLYLQMNSLKPDDTAVYYCAKYERATEWGHTIVAVTPLLDGVHDYWGQGTQVTVSSHHHHHHEPEA
notes: also called Mb^Nb60cYgjkQE2
B1: the binding result with MbNb207^cHopQ [1] is reported as “binds”.

B2: MbNb60^c7HopQ mut2 (N277K, T270R) (designed binder)
chain: QVQLVESGGGLVQTKTTTSVIDTTNDAQNLLTQAQTIVNTLKDYCPILIAKSSSSNGGTNNANTPSWQTAGGGKNSCATFGAEFSAASDMINNAQKIVQETQQLSANQPKNITQPHNLNLNSPSSLTALAQKMLKNAQSQAEILKLANQVESDFNKLSSGHLKDYIGKCDASAISSANMTMQNQKNNWGNGCAGVEETQSLLKTSAADFNNQTPQINQAQNLANTLIQELGNNTYEQLSRLLTNDNGTNSKTSAQAINQAVNNLNERAKRLAGGTTKSPAYQATLLALRSVLGLWNSMGYAVICGGYTKSPGENNQKDFHYTDENGNGTTINCGGSTNSNGTHSYNGTNTLKADKNVSLSIEQYEKIHEAYQILSKALKQAGLAPLNSKGEKLEAHVTTSKYGSLRLSCAASGFTFSRYAMSWVRQAPGKGPEWVSAINSPGGSTSYADSVKGRFTISRDNAKNTLYLQMNSLKPDDTAVYYCAKYERATEWGHTIVAVTPLLDGVHDYWGQGTQVTVSSHHHHHHEPEA
notes: also called MbNb60^cHopQmut2; MbNb60^c7HopQ N277K T270R
B2: in the experiment with MbNb207^cHopQ [1], the binding result is on record as “binds”.

B3: MbNb60^c7HopQ mut3 (N277K, T270R, E197R) (designed binder)
chain: QVQLVESGGGLVQTKTTTSVIDTTNDAQNLLTQAQTIVNTLKDYCPILIAKSSSSNGGTNNANTPSWQTAGGGKNSCATFGAEFSAASDMINNAQKIVQETQQLSANQPKNITQPHNLNLNSPSSLTALAQKMLKNAQSQAEILKLANQVESDFNKLSSGHLKDYIGKCDASAISSANMTMQNQKNNWGNGCAGVERTQSLLKTSAADFNNQTPQINQAQNLANTLIQELGNNTYEQLSRLLTNDNGTNSKTSAQAINQAVNNLNERAKRLAGGTTKSPAYQATLLALRSVLGLWNSMGYAVICGGYTKSPGENNQKDFHYTDENGNGTTINCGGSTNSNGTHSYNGTNTLKADKNVSLSIEQYEKIHEAYQILSKALKQAGLAPLNSKGEKLEAHVTTSKYGSLRLSCAASGFTFSRYAMSWVRQAPGKGPEWVSAINSPGGSTSYADSVKGRFTISRDNAKNTLYLQMNSLKPDDTAVYYCAKYERATEWGHTIVAVTPLLDGVHDYWGQGTQVTVSSHHHHHHEPEA
notes: also called MbNb60^cHopQmut3; MbNb60^c7HopQ N277K T270R E197R
For the molecule B3, the binding result with MbNb207^cHopQ [1] is reported as “binds”.

B4: Nb60 HopQ-specific Nanobody (VHH)
VHH: QVQLQESGGGLVQPGGSLRLSCAASGFTFSRYAMSWVRQAPGKGPEWVSAINSPGGSTSYADSVKGRFTISRDNAKNTLYLQMNSLKPDDTAVYYCAKYERATEWGHTIVAVTPLLDGVHDYWGQGTQVTVSS
notes: also called cHopQ-specific Nanobody
For B4, the binding result in the experiment with MbNb207^cHopQ [2] is “binds”.
